The DeepSol protein solubility set

Assay: soluble on expression in E. coli; label from the status in PepcDB or PDB records

Row | Sequence | soluble on expression in E. coli
1 | MSLSAPKQWQVGIVGYGEVGKILAEDLRAQGVKVAAYDVKLADDRGGPLREHASRHDVALTTSHAELAARSDFIISAVTASQTVAVAEACAGAINQGTWFLDFNSASPGAKQRAASLIDGAQGRYVEGAVMTSVPPYRIKVPLLLGGAYAAELAPLINTLGFAAKPASDQLGVASATKMCRSIMIKGLEAMVIESFTTARAYGVEDAVIASLQETFPQIDWEKQGAYFFQRVIAHGRRRAEEVREVAETVREAGLTPWSAQGTAERQAWVADLADEGLFGTRGASGFARSPDWRTEADRILAKVKDETKTEGHHHHHH | not soluble
2 | MAHHHHHHMRNVVQKYLCRKNNFPGFCSKRNVCTLSQKKNLSAYKIYTDGLLHSEFSTELKTTNEVNRLPIFRVLDTEGNLLDGHNAPFEEEEIVKLYKQMVEFSIWDEIFYGIQRQGRISFYIVNDGEEGIQFGLGKVLTPDDHLYCQYRETGILLSRGFDYADIINQLFGNKYDEGKGRQMCICYTSKKLNIHTITTPLASQLSHAAGCGYALKLKNEKAVAATFCGDGSSSEGDFYAALNFAAVRESQTMFICKNNLYAISTSIKDQYRGDGVAPRALALGIESVRVDGNDLFATYLAAKKMREICTEESKPVFMEFMAYRYGHHSTSDDSSLYRPKEENDAWKKEGVHPISRLFLYLKNKKLYTDKDDELHRKAIKEKVLKELKKHESIKRYNIVGGLFENVYHEEDWNLKEQRESFEQFFKQHKGCYDTSKFEG | not soluble
3 | MGSDKIHHHHHHCQNHVETMSITNNDAYLLQQTALSSSLGYDIVESLTVEVGPRLAGSPKDIIAVNWAMDKLTHLGFDRVYKEPVQVPIWERGEAKAKITFPVEQPLVITALGGSVATPTTGIQAKIIRFDSLEALKQANPEDVKGRIAFIDQKTERHITGEGYGKSVGGRSKGAVAAAEKGAVAIIIRSIGTDHDRMAHTGVMRYQDGVPKIPAAAMSNPDADLVTAMLRRDPNAILELQMSPKNSGFNTSYNVIAEVTGSSKPNEIVLIGAHLDSWDEGTGAIDDGAGVAIVTAAAKHIQDLPIKPARTVRVVLYAAEEIGLMGGKAYAEAHKAELPLHYIAAESDFGAGRIYQIDTKVNEGVFTKVQNILKPMTLNGVTLGSNQASAGPDISMLPAQGVPVASLRQDGRDYFDYHHTPNDTLDKIDPAALAQNVAAYAQFAYLMANSNIVLTPLASEIK | not soluble
4 | MKLRLSALALGTTLLVGCASSGTDQQGRSDPLEGFNRTMYNFNFNVLDPYIVRPVAVAWRDYVPQPARNGLSNFTGNLEEPAVMVNYFLQGDPYQGMVHFTRFFLNTILGMGGFIDVAGMANPKLQRTEPHRFGSTLGHYGVGYGPYVQLPFYGSFTLRDDGGDMADGLYPVLSWLTWPMSVGKWTLEGIETRAQLLDSDGLLRQSSDPYIMVREAYFQRHDFIANGGELKPQENPNAQAIQDDLKDIDSE | not soluble
5 | MLTIIKTILDVIVGVKERDYVKNTFNQLLKEKNITNYQYIRTAGNQILIDDRDILYVIHDKGWVSRGYGRITDIELSIDDSVAFQSSLSSATGRAIAGGVLAGGVGAIIGGVTGRKNGKKIVHRITLTISFNTPDRPYARVTFLDNQQGVDIYSDEYKRAEEDALYWSKLISSLMN | not soluble
6 | MGSDKIHHHHHHMERIDEILSQLTTEEKVKLVVGVGLPGLFGNPHSRVAGAAGETHPVPRLGIPAFVLADGPAGLRINPTRENDENTYYTTAFPVEIMLASTWNRDLLEEVGKAMGEEVREYGVDVLLAPAMNIHRNPLCGRNFEYYSEDPVLSGEMASAFVKGVQSQGVGACIKHFVANNQETNRMVVDTIVSERALREIYLKGFEIAVKKARPWTVMSAYNKLNGKYCSQNEWLLKKVLREEWGFDGFVMSDWYAGDNPVEQLKAGNDMIMPGKAYQVNTERRDEIEEIMEALKEGKLSEEVLDECVRNILKVLVNAPSFKGYRYSNKPDLESHAEVAYEAGAEGVVLLENNGVLPFDENTHVAVFGTGQIETIKGGTGSGDTHPRYTISILEGIKERNMKFDEELASTYEEYIKKMRETEEYKPRTDSWGTVIKPKLPENFLSEKEIKKAAKKNDVAVVVISRISGEGYDRKPVKGDFYLSDDELELIKTVSKEFHDQGKKVVVLLNIGSPIEVASWRDLVDGILLVWQAGQEMGRIVADVLVGKINPSGKLPTTFPKDYSDVPSWTFPGEPKDNPQRVVYEEDIYVGYRYYDTFGVEPAYEFGYGLSYTKFEYKDLKIAIDGETLRVSYTITNTGDRAGKEVSQVYIKAPKGKIDKPFQELKAFHKTKLLNPGESEEISLEIPLRDLASFDGKEWVVESGEYEVRVGASSRDIRLRDIFLVEGEKRFKP | not soluble
7 | MGSSHHHHHHSSGLVPRGSHMSQFSFTKMHGLGNSYIYVNMFEEQIPEEDLALVAEKVSNINTGIGADGMILICPSDVAPVKMRMFNNDGSEGKSCGNGLRCVAKYAYEHKLVEDTVFTIETLAGIVTAEVTVEEGKVTLAKIDMGAPRLTRAEIPMLGEGETPFIRENFLYNNHRYAFTAVSMGNPHAVIFVDDVEQAPLTTLGPVLETHEMFPERVNVEFIEILNEEEMNFRVWERGSGVTQACGTGACAAVVASILNGKMERGKEITVHLAGGDLMIAWTEEGNVLMKGPAEVICRGVYEYKIEA | soluble
8 | DIGCYTLGIQSGTVETTLCMGSSISIASGLYHAGEKRPICCSIGDSTFFHTGMNSLLNAVFNKANITVTILDNRITAMTGHQPNPGVGFTVTGEPTVEVSLAELCKAMGAGFVTVVDPYNLEETQEAFKAAKEFEGTAVVIAKQPCVISGKRAGI | not soluble
9 | MSLSILFKNAALLDPLQADLMDAHHVLVEDNLIKEVSDRPLQVTADRTIDLRGKTLMPGLIDLHVHAVAVELNLAQQVHMPNVLVTLRSTLLLRGMLRRGFTTVRDAGGAGHALKQAIETGLTDGPRLFVSGRALSQTGGHGDMRARSDYLASDAPCPCCVRVGALARVADGVDGVRRAAREELQMGADQIKIMASGGVASPTDPVGAFGYSEDEIRAIVEEARGRQTYVLAHAYTAAAIARAVRCGVRTIEHGNLVDEPTARLMAEKGAYVVPTLVTYEALANEGAQYGLPPESVAKIADVRDAGLRSLAIYRDAGVKMGFGSDLLGPSQRLQSDEFRIRAEILGPRAVIASATVIGAEVLGMEGKLGRIAPEALADLLVVDGNPLRDVACLLGQGEHIPLVLKAGKVQFDRLNAEGHHHHHH | not soluble
10 | MGSDKIHHHHHHMEVAAVDSLEALYKMVAKLYRRLSASARKRLLEGVELAAEKGDPALAYHRLSTLARDYYGDSLPYASDGYYKTYKHTRCVGLPEPTKVSGVDVLEAIRRRRSRRSFSRRPLTLTEVSTILFHVAGITGLAWWGGPKRPYPSAGALQPVEAYLVVERVEGLKPGLYHYNPSGHCLEMLREGKLLGRLADVSLGQDHVAEAAAALVLTAVYTRTGSKYGHRSYRYVHWDTGFAGENVYLVCEALGLATVAVGAFYDDEMCGFLEIDCPWEMPMLVFPVGARG | not soluble
11 | MTFRPFWLDQALRSEHAAPCPPLAGDTRADVCIVGGGYTGLWTAIMLKEHDPGLDVVLVEADLCGAGASGRNGGCALSWSAKFFTLERLFGLTEAIRLVKASEDSIRAIGAFCQRYDVEADYRLDGTLYTATNPAQVGSTDSVIAALERHGINSFAKRPLADVQRLAGSRRHLEGWFSPAAATVQPGKLVRGLRRVALQLGVRLYEGTPMRGLEHGRPAEVVTPHGRVVAGRVVLALNAWMARAFPQFERSVAIVSSDMLITEPRPDLLQEIGLTSGVSVLDSRIFVHYYHNTPDGRLMLGKGGNTFAYGGRMLPVFDRPSPYLGQLRGSLREFFPEFAEVAIEASWNGPSDRSVTGLPFFGRLDGRDNVFYGFGYSGSGVGPCHMGGQILSSLALGLDNPWTRSPLTQGPLGRFPPEPIRYVGSLMVRNAIRRKEHAEDAGRRPRHLDVRLARFAAAAGKADKGLEHHHHHH | not soluble
12 | MSLDDHTRDPTVKAPDGNPSGWRTDGQWEHETLRRAVVHGVRLYNSGEFHESHDCFEDEWYNYGRGNTESKFLHGMVQVAAGAYKHFDFEDDDGMRSLFRTSLQYFRGVPNDYYGVDLLDVRTTVTNALSDPSALHGWQIRLDGEYPTCRPEDIEFAESLEHEGHHHHHH | soluble
13 | VLASILLSQAAYESNYGSSLLSVKYHNIYSLPARPGQEHIYLKDNVYSKGKWQYQKVDFAVFRDWSSSMSSYLEELRQGRWGESTYKEVAGTTSYKVAAEKLQAAGFNSDPDYTKHLISIIETYNL | not soluble
